T1: GST-human NOGO-A56 (human, UniProt Q9NQC3 586-785)
T1 construct: GST-tagged fusion expressed in E. coli BL21 from pGEX-6P1; also called hNOGO; human NOGO 5+6 GST; not shown: Glutathione S-transferase tag encoded by vector pGEX-6P1 (N-terminal, with vector linker)
T1 sequence: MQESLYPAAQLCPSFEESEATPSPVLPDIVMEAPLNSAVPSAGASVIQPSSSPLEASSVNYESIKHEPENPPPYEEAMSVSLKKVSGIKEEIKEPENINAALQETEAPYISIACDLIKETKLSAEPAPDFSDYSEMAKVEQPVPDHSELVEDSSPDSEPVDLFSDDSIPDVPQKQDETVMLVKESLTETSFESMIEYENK

B1: HcLc (antibody, human IgG1, kappa, V domains shown)
VH: QVQLQQPGTELVKPGASVKLSCKASGYTFTSYWMHWVKQRPGQGLEWIGNINPSNGGTNYNEKFKSKATLTVDKSSSTAYMQLSSLTSEDSAVYYCELGQGYWGQGTLVTVSS
VL: DIVITQDELSNPVTSGESVSISCRSSKSLLYKDGKTYLNWFLQRPGQSPQLLIYLMSTRASGVSDRFSGSGSGTDFTLEISRVKAEDVGVYYCQQLVEYPLTFGAGTKLELKR
notes: also called chimera of 2A10; 2A10 chimeric antibody
B2: H16L16 (antibody, human IgG1, kappa)
heavy: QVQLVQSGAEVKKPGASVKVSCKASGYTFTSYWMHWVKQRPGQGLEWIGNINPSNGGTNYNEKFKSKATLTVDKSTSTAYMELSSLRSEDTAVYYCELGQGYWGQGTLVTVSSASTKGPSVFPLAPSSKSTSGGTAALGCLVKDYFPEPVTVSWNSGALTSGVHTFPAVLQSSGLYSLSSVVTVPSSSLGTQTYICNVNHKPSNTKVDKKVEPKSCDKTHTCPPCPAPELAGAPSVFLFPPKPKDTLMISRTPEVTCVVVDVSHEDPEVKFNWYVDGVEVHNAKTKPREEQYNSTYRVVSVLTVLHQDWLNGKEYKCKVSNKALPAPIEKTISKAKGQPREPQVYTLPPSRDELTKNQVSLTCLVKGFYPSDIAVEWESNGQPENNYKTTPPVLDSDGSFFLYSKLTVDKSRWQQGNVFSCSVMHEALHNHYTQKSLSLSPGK
light: DIVMTQSPLSNPVTLGQPVSISCRSSKSLLYKDGKTYLNWFLQRPGQSPQLLIYLMSTRASGVPDRFSGGGSGTDFTLKISRVEAEDVGVYYCQQLVEYPLTFGQGTKLEIKRTVAAPSVFIFPPSDEQLKSGTASVVCLLNNFYPREAKVQWKVDNALQSGNSQESVTEQDSKDSTYSLSSTLTLSKADYEKHKVYACEVTHQGLSSPVTKSFNRGEC
B3: H20L16 (antibody, human IgG1, kappa, V domains shown)
VH: QVQLVQSGAEVKKPGASVKVSCKASGYTFTSYWMHWVRQAPGQGLEWIGNINPSNGGTNYNEKFKSKATMTRDTSTSTAYMELSSLRSEDTAVYYCELGQGYWGQGTLVTVSS
VL: DIVMTQSPLSNPVTLGQPVSISCRSSKSLLYKDGKTYLNWFLQRPGQSPQLLIYLMSTRASGVPDRFSGGGSGTDFTLKISRVEAEDVGVYYCQQLVEYPLTFGQGTKLEIKR
notes: human gamma1 mutated constant region, human kappa; also called H20L16 FL

How the values were obtained:
GST-human NOGO-A56 [1] = biological target: T1, GST-human NOGO-A56; experiment: SPR (Biacore), GST-human NOGO-A56 immobilised, purified antibody as analyte; mean (SD) of 12 runs
GST-human NOGO-A56 [2] = biological target: T1, GST-human NOGO-A56; experiment: SPR off-rate ranking, supernatant from small-scale transient transfection over immobilised GST-human NOGO-A56; single experiment
GST-human NOGO-A56 [3] = biological target: T1, GST-human NOGO-A56; experiment: SPR (Biacore T100), reverse format: antibody captured on Protein A, human NOGO 5+6 GST as analyte, 1:1 model; mean (SD) of 5 or 6 runs
GST-human NOGO-A56 [4] = biological target: T1, GST-human NOGO-A56; experiment: SPR (Biacore), GST-human NOGO-A56 immobilised, purified antibody as analyte; single experiment
GST-human NOGO-A56 [5] = biological target: T1, GST-human NOGO-A56; experiment: as above; remark: listed apart in the source
GST-human NOGO-A56 [6] = biological target: T1, GST-human NOGO-A56; experiment: as above; remark: listed apart in the source
GST-human NOGO-A56 [7] = biological target: T1, GST-human NOGO-A56; experiment: SPR (Biacore), GST-human NOGO-A56 immobilised, purified antibody as analyte; single experiment (value said to be not typical)

| Binder | Kd (GST-human NOGO-A56 [1]) [nM] | koff (GST-human NOGO-A56 [1]) [s⁻¹] | kon (GST-human NOGO-A56 [1]) [M⁻¹ s⁻¹] | koff (GST-human NOGO-A56 [2]) [s⁻¹] | Kd (GST-human NOGO-A56 [3]) [nM] | koff (GST-human NOGO-A56 [3]) [s⁻¹] | kon (GST-human NOGO-A56 [3]) [M⁻¹ s⁻¹] | Kd (GST-human NOGO-A56 [4]) [nM] | koff (GST-human NOGO-A56 [4]) [s⁻¹] | kon (GST-human NOGO-A56 [4]) [M⁻¹ s⁻¹] | Kd (GST-human NOGO-A56 [5]) [nM] | koff (GST-human NOGO-A56 [5]) [s⁻¹] | kon (GST-human NOGO-A56 [5]) [M⁻¹ s⁻¹] | Kd (GST-human NOGO-A56 [6]) [nM] | koff (GST-human NOGO-A56 [6]) [s⁻¹] | kon (GST-human NOGO-A56 [6]) [M⁻¹ s⁻¹] | Kd (GST-human NOGO-A56 [7]) [nM] | koff (GST-human NOGO-A56 [7]) [s⁻¹] | kon (GST-human NOGO-A56 [7]) [M⁻¹ s⁻¹] |
| --- | --- | --- | --- | --- | --- | --- | --- | --- | --- | --- | --- | --- | --- | --- | --- | --- | --- | --- | --- |
| B1 | 1.9 | 0.00754 | 3.92e+06 | 0.00392 | 0.41 | 0.000569 | 1.38e+06 | 1.59 | 0.00369 | 2.32e+06 | 1.42 | 0.0035 | 2.46e+06 | 1.7 | 0.0044 | 2.6e+06 | – | – | – |
| B2 | – | – | – | 0.00577 | – | – | – | – | – | – | – | – | – | – | – | – | 3.4 | 0.004 | 1.2e+06 |
| B3 | 1.86 | 0.0102 | 5.43e+06 | 0.00718 | 0.31 | 0.000313 | 1.01e+06 | – | – | – | 1.61 | 0.00847 | 5.24e+06 | 1.7 | 0.0073 | 4.4e+06 | – | – | – |
